# Assays:
# [1] = target: WW2 domain of human YAP2 (residues 230-264) (human) (UniProt P46937); test: ITC
# [2] = target: WW1 domain of human YAP2 (residues 171-205) (human) (UniProt P46937); test: ITC
# WW1 domain of human YAP2 (residues 171-205) (human), sequence (P46937 171-205): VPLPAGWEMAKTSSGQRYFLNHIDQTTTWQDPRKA
# WW2 domain of human YAP2 (residues 230-264) (human), sequence (P46937 230-264): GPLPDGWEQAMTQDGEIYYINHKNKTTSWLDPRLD
Substance,dH [1] [kcal/mol],Kd [2] [µM],dH [2] [kcal/mol],Kd [1] [µM]
ErbB4_PY1 peptide (12-mer with the PY1 PPXY motif of the ICD of human ErbB4),-3.9,113,-6.14,–
ErbB4_PY2 peptide (12-mer with the PY2 PPXY motif of the ICD of human ErbB4),-4.23,84,-2.94,116
"ErbB4_PY3 peptide, alanine mutant PY3_A+2",-10.1,–,-12.7,126
"ErbB4_PY3 peptide, alanine mutant PY3_A-1",-10.7,70,-15.9,110

# Second part, the substance after the results:
dH [1] [kcal/mol],Kd [2] [µM],dH [2] [kcal/mol],Kd [1] [µM],Substance
-8.61,53,-9.8,–,"ErbB4_PY3 peptide, alanine mutant PY3_A+4"
-14.6,15,-14.6,46,"ErbB4_PY3 peptide, alanine mutant PY3_A+5"
-9.06,36,-10.3,85,"ErbB4_PY3 peptide, alanine mutant PY3_A+6"
-13.1,45,-16.1,83,"ErbB4_PY3 peptide, alanine mutant PY3_A-2"
-10.3,46,-16.9,62,"ErbB4_PY3 peptide, alanine mutant PY3_A-3"
-7.72,31,-13.3,56,"ErbB4_PY3 peptide, wildtype (12-mer with the PY3 PPXY motif of the ICD of human ErbB4)"

# Source: publication PMC3995836
